Reference: publication PMC9371650 (Proceedings of the National Academy of Sciences of the …, 2022)

T1: ectodomain of glycoprotein B (ect-gB), Epstein-Barr virus (Epstein-Barr virus (HHV-4), strain M81 …)
T1 chain 1: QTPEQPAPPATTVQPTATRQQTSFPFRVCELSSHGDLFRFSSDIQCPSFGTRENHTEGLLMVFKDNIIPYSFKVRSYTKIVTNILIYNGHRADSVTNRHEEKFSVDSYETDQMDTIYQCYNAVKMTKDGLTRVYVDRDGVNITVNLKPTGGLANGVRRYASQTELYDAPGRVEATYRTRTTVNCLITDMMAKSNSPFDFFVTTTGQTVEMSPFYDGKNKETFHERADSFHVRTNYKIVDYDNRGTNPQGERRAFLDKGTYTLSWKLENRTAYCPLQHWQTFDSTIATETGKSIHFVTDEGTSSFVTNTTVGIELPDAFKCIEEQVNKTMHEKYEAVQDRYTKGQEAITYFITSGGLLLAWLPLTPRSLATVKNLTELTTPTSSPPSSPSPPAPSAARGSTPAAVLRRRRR
T1 chain 2: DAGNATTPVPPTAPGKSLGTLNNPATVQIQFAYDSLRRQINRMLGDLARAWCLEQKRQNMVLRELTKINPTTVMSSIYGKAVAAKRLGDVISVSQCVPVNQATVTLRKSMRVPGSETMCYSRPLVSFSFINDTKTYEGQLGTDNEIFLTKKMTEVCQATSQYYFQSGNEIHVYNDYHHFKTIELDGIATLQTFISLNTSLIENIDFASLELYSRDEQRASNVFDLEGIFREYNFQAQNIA

B1: 3A5, rabbit anti-EBV gB neutralizing monoclonal antibody (antibody, V domains shown)
VH: QSVKESGGRLVTPGTPLTLTCTVSGFSLSSYEMGWVRQAPGEGLEWIGTISTGGSSYYASWAKGRFTISRTSTTVDLKMTSLTTADTATYFCARGYGGYGIGAGYFNIWGPGTLVTVSS
VL: ALVMTQTPSSVSEPVGGTVTIKCQASQSISSYLAWYQRKPGQRPKLLIYGTSTLASGVPSRFIGSGSGTDYTLTISDLECDDAATYYCQQGFSTSNVYNSFGGGTKVDIK
B2: antigen binding fragment of 3A5 (3A5Fab) (Fab, V domains shown)
VH: B1 VH
VL: B1 VL
B3: 3A3, rabbit anti-EBV gB neutralizing monoclonal antibody (antibody, V domains shown)
VH: QSVKESGGRLVTPGTPLTLTCTVSGFSLSSYAMSWVRQAPGKGLEYIGVIYASGSTYYASWAKGRFTISRTATTVDLKITSPTTEDTATYFCGRGVSTNMWGPGTLVTVSS
VL: DLVMTQTPSSVSAAVGGTVTIKCQASQSLGGGLAWYQQKPGQRPKLLIYSASTLESGVPSRFRGSGSGTEFTLTISDLECADAATYYCQSAYGPTSNGLFNAFGGGTKVVIK
B4: antigen binding fragment of 3A3 (3A3Fab) (Fab, V domains shown)
VH: B3 VH
VL: B3 VL
B5: 1E12 (antibody, V domains shown)
VH: QSVKESGGRLVTPGTPLTLTCTVSGIDLSTYVMTWVRQAPGKGLECIGIIGYGGSTYYASWATGRFTISKTSTTVDLRMTSLTTEDTATYFCARGVSSNLYRGMNLWGQGTLVTVSS
VL: ALVMTQTPSPVSAAVGGTVSISCQSSPSVYSNYLSWYQQKPGQPPKLLIYETSKLESGVPSRFSGSGSGTQFTLTISGVQCDDAATYYCAGGYSGISDTFAFGGGTKVDIK

Tests used:
[1] = target: ectodomain of glycoprotein B (ect-gB), Epstein-Barr virus (Epstein-Barr virus); experiment: native gel or EMSA
[2] = target: virion-encoded gB expressed on EBV-positive Akata cells (Epstein-Barr virus (HHV-4), strain …, UniProt P03188, strain); experiment: cell-based or functional assay
[3] = target: T1, ectodomain of glycoprotein B (ect-gB), …; experiment: SPR
[4] = target: T1, ectodomain of glycoprotein B (ect-gB), …

Molecule	IC50 of neutralization of Akata-EBV infection of HNE1 epithelial cells [2]	IC50 of neutralization of CNE2-EBV infection of Akata B cells [2]	Kd [3]	also measured
ectodomain of glycoprotein B (ect-gB), Epstein-Barr virus (domain or fragment)	–	–	–	stoichiometry N [1]: 3
B1	0.31 µg/mL	4.9 µg/mL	–	–
B2	–	–	~3.93 nM	–
B3	0.08 µg/mL	2.97 µg/mL	–	–
B4	–	–	~3.49 nM	–
B5	–	–	–	binding result [4]: binds
